Tested on: iron-deficiency-anemia-induced animals
Assay type: in vivo, Sprague-Dawley rats (female)
Procedure: The composition containing soy leghemoglobin prepared according to the present invention was administered to iron-deficiency-anemia-induced animals, whereby the effectiveness of the composition containing soy leghemoglobin on alleviating anemia was evaluated. Specifically, after 2 weeks acclimation period, thirty 9-week old Sprague-Dawley rats (female) were divided into 3 groups of 10 rats per group, among which one group was fed with normal feed in an amount of 10% of body weight daily for one month (Group 1; control), and the remaining two groups were fed with iron-deficient feed in an amount of 10% of body weight daily for 6 weeks to induce iron-deficiency anemia (Group 2 and Group 3). After 6 weeks of feeding, it was confirmed that iron-deficiency anemia was induced in the individual rat belonging to Group 2 and Group 3. Then, one of the anemia-induced groups was orally administered once a day with saline alone (Group 2), and the other anemia-induced group was orally administered once a day with solution containing soy leghemoglobin (0.1 mg Fe/500 μl solution, Group 3). The administration continued for 5 weeks. During 5 weeks of administration to Group 2 and Group 3, Group 1 was continuously fed with normal feed, and Group 2 and Group 3 were fed with iron-deficient feed. […] After 5 weeks of administration, blood was collected, and whether anemia was alleviated was evaluated.

[1] = iron-deficient feed, oral once a day, 0.1 mg Fe/500 μl solution, 5 weeks, blood collected after 5 weeks

B1: soy leghemoglobin (protein)
chain: MGAFTEKQEALVSSSFEAFKANIPQYSVVFYTSILEKAPAAKDLFSFLSNGVDPSNPKLTGHAEKLFGLVRDSAGQLKANGTVVADAALGSIHAQKAITDPQFVVVKEALLKTIKEAVGDKWSDELSSAWEVAYDELAAAIKKAF
modifications: heme cofactor; Soy leghmoglobin
- Alleviation of iron-deficiency anemia (conclusion) (anemia-induced rats, 5 weeks oral administration): effective at alleviating iron-deficiency anemia
- Weight of rats on 5 weeks after administration (iron-deficient feed, oral once a day, 0.1 mg Fe/500 μl solution, 5 weeks, anemia-induced female Sprague-Dawley rats): 369.3 ± 1.1 g
- Blood test Hematocrit [1]: 31.8 ± 1.9%
- Blood test Hemoglobin content [1]: 14.2 ± 0.4 g/dL

From patent US20230074134A1, “METHOD FOR PREPARING SOY LEGHEMOGLOBIN USING ESCHERICHIA COLI” (iNtRON Biotechnology, Inc., priority 2020, published 2023)
